Measured values as given in patent EP4782466A1, “FUSION PROTEIN FOR INACTIVATING CORONAVIRUS AND USE THEREOF” (priority 2023, dated 2025).

Assays:
Test in all cases: cell-based or functional assay
[1] = biological target: S protein of bat-derived SARS-CoV-like coronavirus WIV1 (bat-derived SARS-CoV-like coronavirus WIV1)
[2] = biological target: S protein of SARS-CoV (SARS-CoV) (UniProt P59594)
[3] = biological target: S protein of bat-derived SARS-CoV-like coronavirus Rs3367 (bat-derived SARS-CoV-like coronavirus Rs3367)
[4] = biological target: S protein of SARS-CoV-2 prototype strain (SARS-CoV-2 prototype) (UniProt P0DTC2)
[5] = biological target: S protein of Human Coronavirus NL63 (Human Coronavirus NL63) (UniProt Q6Q1S2)

Work on “ACE2 protein alone (ACE2 peptidase domain alone) (from UniProt Q9BYF1 18-615) (receptor)” yielded an EC50, inactivation of pseudovirus (Caco-2, luciferase) [1] of 758 nM, an IC50, inhibition of pseudovirus infection (Caco-2, luciferase) [1] of 239 nM and an EC50, inactivation of pseudovirus (Caco-2, luciferase) [2] of 1240 nM. For the same substance, the IC50, inhibition of pseudovirus infection (Caco-2, luciferase) [2] was 9.5 nM, the EC50, inactivation of pseudovirus (Caco-2, luciferase) [3] was 274 nM and the IC50, inhibition of pseudovirus infection (Caco-2, luciferase) [3] was 249 nM.
“AL2E protein (ACE2-linker-EK1 fusion protein with (GGGGS)2 linker) (from UniProt Q9BYF1 18-615)” gave an IC50, inhibition of pseudovirus infection (Caco-2, luciferase) [4] of 0.6 nM.
Substance “AL5E protein (ACE2-linker-EK1 fusion protein with (GGGGS)5 linker)” has an EC50, inactivation of pseudovirus (Caco-2, luciferase) [1] of 3.54 nM, a Fold enhancement in activity of AL5E over ACE2 (EC50, pseudovirus inactivation) [1] of 214 fold and a Fold enhancement in activity of AL5E over ACE2 (IC50, pseudovirus inhibition) [1] of 71.2 fold. The IC50, inhibition of pseudovirus infection (Caco-2, luciferase) [1] was 3.36 nM, the EC50, inactivation of pseudovirus (Caco-2, luciferase) [2] was 18.1 nM and the Fold enhancement in activity of AL5E over ACE2 (EC50, pseudovirus inactivation) [2] was 68.1 fold. It also gave a Fold enhancement in activity of AL5E over ACE2 (IC50, pseudovirus inhibition) [2] of 13.8 fold, an IC50, inhibition of pseudovirus infection (Caco-2, luciferase) [2] of 0.69 nM and an EC50, inactivation of pseudovirus (Caco-2, luciferase) [4] of 5.1 nM. The Fold enhancement of AL5E over ACE2 (EC50, pseudovirus inactivation) [4] was 22.2 fold, the Fold enhancement of AL5E over ACE2 (IC50, pseudovirus inhibition) [4] was 26.9 fold and the IC50, inhibition of pseudovirus infection (Caco-2, luciferase) [4] was 0.26 nM. For the same substance, the EC50, inactivation of pseudovirus (Caco-2, luciferase) [3] was 10.7 nM, the Fold enhancement in activity of AL5E over ACE2 (EC50, pseudovirus inactivation) [3] was 25.6 fold and the Fold enhancement in activity of AL5E over ACE2 (IC50, pseudovirus inhibition) [3] was 42.2 fold. The IC50, inhibition of pseudovirus infection (Caco-2, luciferase) [3] was 5.9 nM, the EC50, inactivation of pseudovirus (Caco-2, luciferase) [5] was 1.08 nM and the Fold enhancement in activity of AL5E over ACE2 (EC50, pseudovirus inactivation) [5] was 540 fold. For the same substance, the Fold enhancement in activity of AL5E over ACE2 (IC50, pseudovirus inhibition) [5] was 34.4 fold and the IC50, inhibition of pseudovirus infection (Caco-2, luciferase) [5] was 0.83 nM.
“AL6E protein (ACE2-linker-EK1 fusion protein with (GGGGS)6 linker)” was tested, and the IC50, inhibition of pseudovirus infection (Caco-2, luciferase) [4] was 0.23 nM.
For “AL7E protein (ACE2-linker-EK1 fusion protein with (GGGGS)7 linker)”, the IC50, inhibition of pseudovirus infection (Caco-2, luciferase) [4] was 0.37 nM.
Work on EK1 polypeptide yielded an IC50, inhibition of pseudovirus infection (Caco-2, luciferase) [1] of 2450 nM, an IC50, inhibition of pseudovirus infection (Caco-2, luciferase) [2] of 841 nM and an IC50, inhibition of pseudovirus infection (Caco-2, luciferase) [4] of 186 nM. The IC50, inhibition of pseudovirus infection (Caco-2, luciferase) [3] was 1340 nM and the IC50, inhibition of pseudovirus infection (Caco-2, luciferase) [5] was 1070 nM.
